Experimental data: patent US20020081280A1
“And” between values parts separate entries of the source, which are not always exact repeats. Equal entries are not always repeated.

Tests used:
[1] = target: cellular integrins on HUVEC cells; experiment: 125I-Ad5lucRGD binding to HUVEC cells at 4 °C, penton base at 100 µg/ml; competitor Ad5lucRGD
[2] = target: coxsackievirus and adenovirus receptor (CAR) on human cells (human) (UniProt P78310); experiment: cell-based or functional assay
Chain of UniProt P78310 (P78310 20-365): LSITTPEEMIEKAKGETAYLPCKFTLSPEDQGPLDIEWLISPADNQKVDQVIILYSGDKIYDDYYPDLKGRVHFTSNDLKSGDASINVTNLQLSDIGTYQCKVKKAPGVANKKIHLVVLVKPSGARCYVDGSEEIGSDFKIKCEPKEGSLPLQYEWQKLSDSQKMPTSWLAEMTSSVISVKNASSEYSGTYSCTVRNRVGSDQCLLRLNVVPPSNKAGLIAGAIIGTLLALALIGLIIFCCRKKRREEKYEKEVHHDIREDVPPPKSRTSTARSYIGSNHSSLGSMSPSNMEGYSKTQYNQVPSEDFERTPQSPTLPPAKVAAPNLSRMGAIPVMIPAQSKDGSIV

| Substance | percent decrease of bound virus radioactivity [1] | blockade of luciferase gene transfer by knob competition, HeLa and SCCHN cell lines (FaDu, SCC-4, SCC-25) [2] | gene transfer to SKOV3.ipl cells blocked by fiber knob [2] | luciferase activity in 293 cells blocked by recombinant knob protein (100 µg/ml) [2] | luciferase activity in SKOV3.ipl cells blocked by excess fiber knob [2] | luciferase activity in ovarian cancer ascites cells blocked by excess fiber knob [2] | reduction of luciferase activity in CaOV-3 cells by fiber knob blockade, dose 3x10^6 PFU [2] | reduction of luciferase activity in UCI-101 cells by the fiber knob block [2] |
| --- | --- | --- | --- | --- | --- | --- | --- | --- |
| recombinant human adenovirus serotype 2 penton base protein, expressed in Sf9 cells (from UniProt P03276 1-571) | 25% |  |  |  |  |  |  |  |
| AdCMVLuc virions (E1-deleted Ad5 vector with unmodified wild-type fibers) (from UniProt P11818 1-581) |  | > 90% | > 90% | 85 to 93% | 82% and 91% | 90% | 55% | 94% and 97% |
